The target in the test is mouse Rae1–Nup98^GLEBS complex (tags removed) (mouse) (UniProt Q8C570). The test can be described thus: SEC.

As a reminder, the stoichiometry N is the number of molecules, sites or subunits per partner or assembly. “MHV-68 ORF10 (wild type, full-length, no tag) (natural protein)” gave a stoichiometry N of 1.

For the origin of these results see paper PMC7604486.
